From paper PMC4138882

Target: 3ftt-wt, wild-type trimeric protein from which T3-08 was derived (PDB ID 3FTT), C-terminal (His)6 construct
Experiment: SEC

Chain of 3ftt-wt, wild-type trimeric protein from which T3-08 was derived (PDB ID 3FTT), C-terminal (His)6 construct (Q5HCZ5 whole entry): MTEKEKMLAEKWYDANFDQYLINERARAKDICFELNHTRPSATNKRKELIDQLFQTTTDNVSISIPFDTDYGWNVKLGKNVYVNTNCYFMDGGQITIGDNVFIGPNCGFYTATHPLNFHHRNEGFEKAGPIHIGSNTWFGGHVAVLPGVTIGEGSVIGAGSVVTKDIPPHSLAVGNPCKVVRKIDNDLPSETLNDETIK

## 3ftt-wt, wild-type trimeric protein from which T3-08 was derived (PDB ID 3FTT), C-terminal (His)6 construct (natural protein)
  stoichiometry N: 3 subunits
